Data as given in patent US20090325290A1 (published 2009).
Positions count from the first letter of the chain named.

B1: MS-GPC-8-6-47 (Fab form) (Fab, V domains shown)
VH: QVQLKESGPALVKPTQTLTLTCTFSGFSLSTSGVGVGWIRQPPGKALEWLALIDWDDDKYYSTSLKTRLTISKDTSKNQVVLTMTNMDPVDTATYYCARSPRYRGAFDYWGQGTLVTVSS
VL: DIVLTQPPSVSGAPGQRVTISCSGSESNIGSNYVSWYQQLPGTAPKLLIYDNNQRPSGVPDRFSGSKSGTSASLAITGLQSEDEADYYCQSYDYDHYVFGGGTKLTVLG
notes: Fab: VH-CH1-FLAG-STREP tag II
B2: MS-GPC-8-6-2 (IgG form) (antibody, V domains shown)
VH: B1 VH
VL: B1 VL with S35H
B3: MS-GPC-1 (scFv form) (scFv, V domains shown)
VH: B1 VH with Q1E, S100Q, P101Y, R102G, Y103H, A106G, Y109H
VL: B1 VL with E26S, Y94F, D95N, H96E, Y97S
B4: MS-GPC-8-6 (IgG form) (antibody, V domains shown)
VH: B1 VH
VL: B1 VL with E26S
B5: MS-GPC-8-27-41 (IgG4 form) (antibody, V domains shown)
VH: B1 VH
VL: B1 VL with S31N, S35Q, Y94M, D95N, H96V, Y97H
notes: Human IgG4 (constant region EMBL K01316), lambda constant region (EMBL M18645), from CHO-K1 cells; also called 1D09C3
B6: MS-GPC-8-6-19 (Fab form) (Fab, V domains shown)
VH: B1 VH
VL: B1 VL with S35A
B7: MS-GPC-8-6-13 (IgG4 form) (antibody, V domains shown)
VH: B1 VH
VL: B1 VL with S31A, S35T
notes: Human IgG4 (constant region EMBL K01316), lambda constant region (EMBL M18645), from CHO-K1 cells; also called 305D3
B8: MS-GPC-8-27-10 (Fab form) (Fab, V domains shown)
VH: B1 VH
VL: B1 VL with S31A, S35N, Y94M, D95N, H96V, Y97H
notes: Fab: VH-CH1-FLAG-STREP tag II
B9: MS-GPC-8-6-27 (Fab form) (Fab, V domains shown)
VH: B1 VH
VL: B1 VL with E26D, S31A, S35T
notes: Fab: VH-CH1-FLAG-STREP tag II
B10: MS-GPC-8-10-57 (Fab form) (Fab, V domains shown)
VH: B1 VH
VL: B1 VL with S31N, S35Q, Y94L, D95I, H96R, Y97H
notes: Fab: VH-CH1-FLAG-STREP tag II; also called 1C7277
B11: MS-GPC-10 (Fab form) (Fab, V domains shown)
VH: B1 VH with S100Q, P101L, R102H, A106G, Y109L
VL: B1 VL with E26S, Y94L, D95T, H96M, Y97G
B12: MS-GPC-8 (Fab form) (Fab, V domains shown)
VH: B1 VH
VL: B1 VL with E26S, Y94M, D95P, H96Q, Y97A
notes: Fab: VH-CH1-FLAG-STREP tag II; also called B8-Fab; B8
B13: MS-GPC-8-6-2 (Fab form) (Fab, V domains shown)
VH: B1 VH
VL: B1 VL with S35H
B14: MS-GPC-8-10-57 (IgG4 form) (antibody, V domains shown)
VH: B1 VH
VL: B1 VL with S31N, S35Q, Y94L, D95I, H96R, Y97H
notes: Human IgG4 (constant region EMBL K01316), lambda constant region (EMBL M18645), from CHO-K1 cells; also called 1C7277
B15: MS-GPC-1 (Fab form) (Fab, V domains shown)
VH: B1 VH with S100Q, P101Y, R102G, Y103H, A106G, Y109H
VL: B1 VL with E26S, Y94F, D95N, H96E, Y97S
B16: MS-GPC-8-27-41 (Fab form) (Fab, V domains shown)
VH: B1 VH
VL: B1 VL with S31N, S35Q, Y94M, D95N, H96V, Y97H
notes: Fab: VH-CH1-FLAG-STREP tag II; also called 1D09C3
B17: MS-GPC-8-27-7 (Fab form) (Fab, V domains shown)
VH: B1 VH
VL: B1 VL with S31N, S35G, Y94M, D95N, H96V, Y97H
notes: Fab: VH-CH1-FLAG-STREP tag II
B18: MS-GPC-8-6-13 (Fab form) (Fab, V domains shown)
VH: B1 VH
VL: B1 VL with S31A, S35T
notes: Fab: VH-CH1-FLAG-STREP tag II; also called 305D3

Tests used:
human apotransferrin = target: T1, human apotransferrin (human, UniProt P02787 20-698); assay: ELISA, antigen coated at 10 µg/well
T1 construct: negative control protein
Method: (§1) After washing in PBS the anti-human IgG F(ab)₂-peroxidase-conjugate at a 1:10,000 dilution in TBS (supplemented with 5% w/v non-fat dry-milk/0.05% v/v Tween 20) was added to each well for 1 h. Final washes were carried out in PBS followed the addition the substrate POD (Roche). Color-development was read at 370 nm in an ELISA-Reader.

[1] = target: human-mouse chimeric molecule DR-IE (human; mouse); assay: cell-based or functional assay
[2] = target: T2, human MHC class II DR protein (DRA*0101/DRB1*0401), purified from PRIESS cells (human, UniProt P01903 26-254; P01911 30-266, limits assumed); assay: SPR (BIAcore), scFv, chip density 500RU MHCII
T2 construct: mature; 'mature' is my reading; also called HLA-DR protein; MHCII
T2 MHC II alpha: not shown
T2 MHC II beta: not shown

[3] = target: T3, HLA-DR on the human B-lymphoblastoid cell line LG-2 (human); assay: FACS on LG-2 cells, competitor 1-1C4
T3 construct: whole, on cells; also called DR-expressing cell line (LG-2)
Method: Subsequently murine antibodies were added and the murine antibodies were detected.
The whole staining procedure was performed on ice. 1×10⁷ cells of the human B-lymphoblastoid cell line LG-2 was preblocked for 20 min. in PBS containing 2% FCS and 35 μg/ml Guinea Pig IgG (“FACS-Buffer”). […] Subsequently, 4 ml of PBS were added to each vial, the vials were centrifuged at 300×g for 8 min, and the cell pellet resuspended in 50 μl FACS buffer containing a 1 to 25 dilution of a goat-anti-murine Ig-FITC conjugate at 20 μg/ml final concentration (BD Pharmingen, Torrey Pines, Calif., USA). Cells were incubated light-protected for 30 min. Afterwards, cells were washed with 4 ml PBS, centrifuged as above and resuspended in 500 μl PBS for analysis in the flow cytometer (FACS Calibur, BD Immunocytometry Systems, San Jose, Calif., USA).

[4] = target: T3, HLA-DR on the human B-lymphoblastoid …; assay: cell-based or functional assay
[5] = target: human-mouse chimeric molecule DR-IE (human; mouse); assay: cell-based or functional assay; remark: listed apart in the source
[6] = target: HLA-DR antigen on the surface of HLA-DR positive cells (tumor cell lines other than PRIESS and LG-2, normal B … (human)); assay: cell-based or functional assay
[7] = target: T3, HLA-DR on the human B-lymphoblastoid …; assay: cell-based or functional assay; remark: listed apart in the source
[8] = target: T2, human MHC class II DR protein …; assay: BiaCore, IgG4
Method: The affinities for anti-HLA antibody fragments of the invention were measured as follows. All measurements were conducted in HBS buffer (20 mM HEPES, 150 mM NaCl, pH 7.4) at a flow rate of 20 μl/min at 25° C. on a BIAcore3000 instrument (Biacore AB, Sweden). MHC class II DR protein (prepared as example 1) was diluted in 100 mM sodium acetate pH 4.5 to a concentration of […], and coupled to a CM5 chip (Biacore AB) using standard EDC-NHS coupling chemistry with subsequent ethanolamine treatment as manufacturers directions. The coating density of MHCII was adjusted to between 500 and 4000 RU. Affinities were measured by injection of 5 different concentrations of the different antibodies and using the standard software of the Biacore instrument. Regeneration of the coupled surface was achieved using 10 mM glycine pH 2.3 and 7.5 mM NaOH.

bovine serum albumine = target: T4, bovine serum albumine (bovine, UniProt P02769 25-607); assay: ELISA, antigen coated at 10 µg/well
T4 construct: negative control protein; also called BSA
Method: as §1

[9] = target: T5, HLA-DR (DRA*0101/DRB1*0401) on the surface of PRIESS cells (human, UniProt P01903 26-254; P01911 30-266); assay: cell-based or functional assay
T5 MHC II alpha: not shown
T5 MHC II beta: not shown

Row | Binder | binding result (human apotransferrin) | IC50, inhibition of IL-2 secretion of T-Hyb 1 cells [1] | Maximum inhibition(%) of IL-2 secretion [1] [%] | other results
1 | B1 | no binding (tested: 100 ng/well) | 2.6 nM ((Fab)/2) | 100 | 
2 | B2 |  | 3.6 nM | 100 | 
3 | B3 |  |  |  | Kd [2]: 1500 nM; koff [2]: 0.061 s⁻¹; kon [2]: 41300 M⁻¹ s⁻¹
4 | B4 |  | 6.7 nM | 100 | 
5 | B5 |  | 0.28 nM | 100 | reduction of mean fluorescence intensity of the murine antibody [3]: > 90%; % killing of LG-2 cells, 50 nM, 4 h [4]: 87%; IC50 for inhibition of T cell proliferation [5]: 20 nM; EC50 of cell killing, IgG form [6]: 1.2 nM; EC50 of cell killing, LG2, IgG4 [7]: 1.23 nM; kon [8]: 71000 M⁻¹ s⁻¹
6 | B6 |  | 5.3 nM ((Fab)/2) | 100 | 
7 | B7 |  | 0.42 nM | 100 | % killing of LG-2 cells, 50 nM, 4 h [4]: 82%; koff [8]: 0.00033 s⁻¹
8 | B8 | no binding (tested: 100 ng/well) | 7.3 nM ((Fab)/2) | 100 | binding result (bovine serum albumine): no binding (tested: 100 ng/well)
9 | B9 | no binding (tested: 100 ng/well) | 3 nM ((Fab)/2) | 100 | 
10 | B10 | no binding (tested: 100 ng/well) | 2.9 nM ((Fab)/2) | 100 | reduction of mean fluorescence intensity of the murine antibody [3]: > 90%; EC50 of cell killing, LG2, cross-linked Fab as bivalent agent [7]: 7.2 nM
11 | B11 |  |  |  | EC50 of cell killing, as bivalent cross-linked (Fab)dimer [9]: < 60 nM; EC50 of cell killing, cross-linked Fab, as monovalent fragment [9]: < 120 nM
12 | B12 | no binding (tested: 100 ng/well) | 110 nM ((Fab)/2) | 100 | binding result (bovine serum albumine): no binding (tested: 100 ng/well); EC50 of cell killing, as bivalent cross-linked (Fab)dimer [9]: < 60 nM; EC50 of cell killing, cross-linked Fab, as monovalent fragment [9]: < 120 nM
13 | B13 |  | 4.7 nM ((Fab)/2) | 100 | 
14 | B14 |  | 0.31 nM | 100 | reduction of mean fluorescence intensity of the murine antibody [3]: > 90%; % killing of LG-2 cells, 50 nM, 4 h [4]: 88%; IC50 for inhibition of T cell proliferation [5]: 11 nM; EC50 of cell killing, IgG form [6]: 1.2 nM; EC50 of cell killing, LG2, IgG4 [7]: 1 nM; kon [8]: 11000 M⁻¹ s⁻¹
15 | B15 |  |  |  | EC50 of cell killing, as bivalent cross-linked (Fab)dimer [9]: < 60 nM; EC50 of cell killing, cross-linked Fab, as monovalent fragment [9]: < 120 nM
16 | B16 | no binding (tested: 100 ng/well) | 3.6 nM ((Fab)/2) | 100 | 
17 | B17 | no binding (tested: 100 ng/well) | 5.9 nM ((Fab)/2) | 100 | binding result (bovine serum albumine): no binding (tested: 100 ng/well)
18 | B18 | no binding (tested: 100 ng/well) | 2.1 nM ((Fab)/2) | 100 | 
